Here are results for seven molecules from paper PMC8240853 (The Journal of Cell Biology, 2021).

Where “and” joins values, the source holds several entries; their conditions need not be identical. Equal values may be shown once.

The target of experiment [1] is microtubules of porcine brain tubulin (porcine) (UniProt P02550). Kind of experiment: binding to microtubules in vitro.
Experiment [2] deals with WDR62 WD40 domain, 1-790 (UniProt O43379). Kind of experiment: streptavidin pull-down, GFP Western blot. The settings on record: reference: wild-type C3 fragment; sites T1053.
Experiment [3] addresses WDR62-N2-GFP (human).
In experiment [4] the target is Strep-p80 WD (UniProt Q8BG40 1-315). Kind of experiment: pull-down.
Chain of Strep-p80 WD (Q8BG40 1-315): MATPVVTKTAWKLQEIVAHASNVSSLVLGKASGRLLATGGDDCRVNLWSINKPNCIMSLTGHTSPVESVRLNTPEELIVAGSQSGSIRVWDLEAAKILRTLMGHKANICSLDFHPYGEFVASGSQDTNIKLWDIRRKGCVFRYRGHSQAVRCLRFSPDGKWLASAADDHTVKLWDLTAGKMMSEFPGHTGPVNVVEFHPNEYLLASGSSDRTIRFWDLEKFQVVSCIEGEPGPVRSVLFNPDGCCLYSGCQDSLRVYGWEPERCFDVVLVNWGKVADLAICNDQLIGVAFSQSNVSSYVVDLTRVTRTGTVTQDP
The target in experiment [5] is T1, Strep-TagBFP-TPX2 (human, UniProt Q9ULW0-1 1-747).
T1 sequence: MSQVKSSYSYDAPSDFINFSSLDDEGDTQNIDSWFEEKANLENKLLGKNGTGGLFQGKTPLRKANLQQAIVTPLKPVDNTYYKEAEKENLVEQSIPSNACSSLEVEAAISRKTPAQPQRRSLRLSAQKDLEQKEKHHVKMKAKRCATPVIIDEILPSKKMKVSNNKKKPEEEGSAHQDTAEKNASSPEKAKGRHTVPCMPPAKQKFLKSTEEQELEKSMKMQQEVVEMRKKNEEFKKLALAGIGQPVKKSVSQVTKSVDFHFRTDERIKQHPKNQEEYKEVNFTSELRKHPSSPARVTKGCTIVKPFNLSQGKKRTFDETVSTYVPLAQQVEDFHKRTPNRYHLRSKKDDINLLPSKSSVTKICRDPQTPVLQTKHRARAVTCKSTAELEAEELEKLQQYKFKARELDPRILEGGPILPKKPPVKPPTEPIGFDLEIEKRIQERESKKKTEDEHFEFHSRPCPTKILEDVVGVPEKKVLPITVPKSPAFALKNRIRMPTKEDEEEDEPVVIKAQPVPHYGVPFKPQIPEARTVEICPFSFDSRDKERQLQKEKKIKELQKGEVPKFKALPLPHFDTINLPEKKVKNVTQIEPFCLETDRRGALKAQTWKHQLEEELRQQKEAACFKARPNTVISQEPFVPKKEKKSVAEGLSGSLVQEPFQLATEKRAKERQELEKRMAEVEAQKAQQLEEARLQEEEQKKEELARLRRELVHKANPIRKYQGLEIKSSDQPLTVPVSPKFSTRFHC
Kind of experiment: recruitment to microtubules in vitro.

In experiment [6] the target is WDR62 FL WT-GFP-Strep (human, UniProt O43379-4 1-1523). Kind of experiment: recruitment to microtubules in vitro.

Turning to “WDR62 WD-GFP-Strep (from UniProt O43379-4 1-790) (domain or fragment)”, the fold affinity for GMPCPP-stabilized MTs against the FL protein in experiment [1] is 4 fold and 5 fold.

For “WDR62 C3, 1001-1523 (from UniProt O43379) C3 T1053A”, the “binding against the reference” value in experiment [2] was “lost”. As for “p60/TagBFP-p80 R615A (from UniProt O43379-4;Q8BG40) (complex)”, in experiment [3], the breakage frequency of WDR62 N2-decorated curved MTs in live MRC5 cells came to 95%. “p60/TagBFP-p80 (from UniProt O43379-4;Q8BG40) (complex)” yielded a breakage frequency of WDR62 N2-decorated curved MTs in live MRC5 cells in experiment [3] of 95%. LAFHAKRSYQPHGRWAERAGQEPLKTILDAQDLDCYFTPMKPES (domain or fragment) [trxA-6xHis-WDR62 M1]: in experiment [4], the binding result was “binds”.

B1: Strep-GFP–Aurora A (natural protein)
chain: MDRSKENCISGPVKATAPVGGPKRVLVTQQFPCQNPLPVNSGQAQRVLCPSNSSQRIPLQAQKLVSSHKPVQNQKQKQLQATSVPHPVSRPLNNTQKSKQPLPSAPENNPEEELASKQKNEESKKRQWALEDFEIGRPLGKGKFGNVYLAREKQSKFILALKVLFKAQLEKAGVEHQLRREVEIQSHLRHPNILRLYGYFHDATRVYLILEYAPLGTVYRELQKLSKFDEQRTATYITELANALSYCHSKRVIHRDIKPENLLLGSAGELKIADFGWSVHAPSSRRTTLCGTLDYLPPEMIEGRMHDEKVDLWSLGVLCYEFLVGKPPFEANTYQETYKRISRVEFTFPDFVTEGARDLISRLLKHNPSQRPMLREVLEHPWITANSSKPSNCQNKESASKQS
With B1, the binding result in experiment [5] was “binds”.

B2: TPX2/TagBFP–Aurora A complex (complex)
chain 1: MSQVKSSYSYDAPSDFINFSSLDDEGDTQNIDSWFEEKANLENKLLGKNGTGGLFQGKTPLRKANLQQAIVTPLKPVDNTYYKEAEKENLVEQSIPSNACSSLEVEAAISRKTPAQPQRRSLRLSAQKDLEQKEKHHVKMKAKRCATPVIIDEILPSKKMKVSNNKKKPEEEGSAHQDTAEKNASSPEKAKGRHTVPCMPPAKQKFLKSTEEQELEKSMKMQQEVVEMRKKNEEFKKLALAGIGQPVKKSVSQVTKSVDFHFRTDERIKQHPKNQEEYKEVNFTSELRKHPSSPARVTKGCTIVKPFNLSQGKKRTFDETVSTYVPLAQQVEDFHKRTPNRYHLRSKKDDINLLPSKSSVTKICRDPQTPVLQTKHRARAVTCKSTAELEAEELEKLQQYKFKARELDPRILEGGPILPKKPPVKPPTEPIGFDLEIEKRIQERESKKKTEDEHFEFHSRPCPTKILEDVVGVPEKKVLPITVPKSPAFALKNRIRMPTKEDEEEDEPVVIKAQPVPHYGVPFKPQIPEARTVEICPFSFDSRDKERQLQKEKKIKELQKGEVPKFKALPLPHFDTINLPEKKVKNVTQIEPFCLETDRRGALKAQTWKHQLEEELRQQKEAACFKARPNTVISQEPFVPKKEKKSVAEGLSGSLVQEPFQLATEKRAKERQELEKRMAEVEAQKAQQLEEARLQEEEQKKEELARLRRELVHKANPIRKYQGLEIKSSDQPLTVPVSPKFSTRFHC
chain 2: MDRSKENCISGPVKATAPVGGPKRVLVTQQFPCQNPLPVNSGQAQRVLCPSNSSQRIPLQAQKLVSSHKPVQNQKQKQLQATSVPHPVSRPLNNTQKSKQPLPSAPENNPEEELASKQKNEESKKRQWALEDFEIGRPLGKGKFGNVYLAREKQSKFILALKVLFKAQLEKAGVEHQLRREVEIQSHLRHPNILRLYGYFHDATRVYLILEYAPLGTVYRELQKLSKFDEQRTATYITELANALSYCHSKRVIHRDIKPENLLLGSAGELKIADFGWSVHAPSSRRTTLCGTLDYLPPEMIEGRMHDEKVDLWSLGVLCYEFLVGKPPFEANTYQETYKRISRVEFTFPDFVTEGARDLISRLLKHNPSQRPMLREVLEHPWITANSSKPSNCQNKESASKQS
Take B2: the binding result in experiment [6] is on record as “binds”.
